This test addresses human TNFSF9 (R&D Systems; #2295-4L-025/CF) (human) (UniProt P41273). As to the kind of experiment: MSD ELISA: TNFSF9 + 1 ug/mL antibody, binding to coated TNFRSF9. For orientation: ELISA stands for enzyme-linked immunosorbent assay.

Chain of human TNFSF9 (R&D Systems; #2295-4L-025/CF) (human) (P41273 71-254 limits assumed): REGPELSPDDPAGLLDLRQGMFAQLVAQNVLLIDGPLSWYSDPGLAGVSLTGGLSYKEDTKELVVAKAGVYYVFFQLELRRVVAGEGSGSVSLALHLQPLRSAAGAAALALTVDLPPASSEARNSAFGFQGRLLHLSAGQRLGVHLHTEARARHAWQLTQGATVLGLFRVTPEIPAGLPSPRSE

Regarding huIgG1 (antibody), the % inhibition of ligand receptor interaction worked out at 0%.

For msIgG2b (antibody), the % inhibition of ligand receptor interaction is -5%. mouse IgG1 isotype control antibody: the % inhibition of ligand receptor interaction was 1%. In the case of msIgG2a (antibody), the % inhibition of ligand receptor interaction was -4%.

The record behind these values is US20190016812A1.
